B1: FabB-648dsFv (2xG4S) (bispecific antibody, part only; not given: anti-OX40 Fab and linkers, V domains shown, not shown: another chain or arm of the molecule; a dimerising Fc or GST; small tags and cut ends)
VH: EVQLVESGGGLVQPGGSLRLSCAVSGFSLSRYAMTWVRQAPGKCLEWIGTITTGGNTNYANWAKGRFTISKDSTTVYLQMNSLRAEDTAVYYCARGGYVSYADATELSLWGQGTLVTVSS
VL: DIVMTQSPSTLSASVGDRVTITCQASQSIGSRLAWYQQKPGKAPKLLIYYASTVASGVPSRFKGSGSGTEFTLTISSLQPDDFATYYCQSYDYSSSSSYAFGCGTKVEIK
modifications: Engineered interchain disulphide between VH Cys44 and VL Cys100 (Kabat; linear position 103 of the VL).
B2: FabB-645dsFv (S3×G4S), Fv heavy mutation T100aA (bispecific antibody, part only; not given: anti-OX40 Fab and linkers, V domains shown, not shown: another chain or arm of the molecule; small tags and cut ends)
VH: EVQLLESGGGLVQPGGSLRLSCAVSGIDLSNYAINWVRQAPGKCLEWIGIIWASGTTFYATWAKGRFTISRDSTTVYLQMNSLRAEDTAVYYCARTVPGYSAAPYFDLWGQGTLVTVSS
VL: DIVMTQSPSSVSASVGDRVTITCQSSPSVWSNFLSWYQQKPGKAPKLLIYEASKLTSGVPSRFKGSGSGTDFTLTISSLQPEDFATYYCGGGYSSISDTTFGCGTKVEIK
modifications: Interchain disulfide between VH Cys44 and VL Cys100 (Kabat) of the dsFv

Assays:
[1] = molecular target: mouse serum albumin (mouse) (UniProt P07724); assay: SPR (Biacore), purified construct
[2] = molecular target: human serum albumin (human) (UniProt P02768); assay: SPR (BIAcore)

Binder | Kd [1] | Kd [2] | koff [2] | kon [2]
B1 | 0.0596 µM |  |  | 
B2 |  | 0.0516 µM | 0.0186 s⁻¹ | 360000 M⁻¹ s⁻¹
